The target of assay [1] is LFA1 (αLβ2) (mouse (endogenous in primary T cells)) (UniProt P24063). Nature of the assay: single-molecule imaging.
For assay [2] the target is unchanged. Nature of the assay: single-molecule imaging. This is another data set of the same source.
Assay [3] deals with LFA1 (αLβ2) (mouse (endogenous in primary T cells), UniProt P24063 24-1162; P11835 24-771). Nature of the assay: flow cytometry on cells.

Data on 2 molecules can be found in PMC10592472 (Cell reports, 2023).

The koff is the rate constant with which the complex falls apart. Low values mean a long-lived complex, high ones a short-lived complex.

Like-named read-outs stand apart in the source and are kept apart here.

Chain of LFA1 (αLβ2) (mouse (endogenous in primary T cells)) (P24063 24-1162, chain 1 of 2): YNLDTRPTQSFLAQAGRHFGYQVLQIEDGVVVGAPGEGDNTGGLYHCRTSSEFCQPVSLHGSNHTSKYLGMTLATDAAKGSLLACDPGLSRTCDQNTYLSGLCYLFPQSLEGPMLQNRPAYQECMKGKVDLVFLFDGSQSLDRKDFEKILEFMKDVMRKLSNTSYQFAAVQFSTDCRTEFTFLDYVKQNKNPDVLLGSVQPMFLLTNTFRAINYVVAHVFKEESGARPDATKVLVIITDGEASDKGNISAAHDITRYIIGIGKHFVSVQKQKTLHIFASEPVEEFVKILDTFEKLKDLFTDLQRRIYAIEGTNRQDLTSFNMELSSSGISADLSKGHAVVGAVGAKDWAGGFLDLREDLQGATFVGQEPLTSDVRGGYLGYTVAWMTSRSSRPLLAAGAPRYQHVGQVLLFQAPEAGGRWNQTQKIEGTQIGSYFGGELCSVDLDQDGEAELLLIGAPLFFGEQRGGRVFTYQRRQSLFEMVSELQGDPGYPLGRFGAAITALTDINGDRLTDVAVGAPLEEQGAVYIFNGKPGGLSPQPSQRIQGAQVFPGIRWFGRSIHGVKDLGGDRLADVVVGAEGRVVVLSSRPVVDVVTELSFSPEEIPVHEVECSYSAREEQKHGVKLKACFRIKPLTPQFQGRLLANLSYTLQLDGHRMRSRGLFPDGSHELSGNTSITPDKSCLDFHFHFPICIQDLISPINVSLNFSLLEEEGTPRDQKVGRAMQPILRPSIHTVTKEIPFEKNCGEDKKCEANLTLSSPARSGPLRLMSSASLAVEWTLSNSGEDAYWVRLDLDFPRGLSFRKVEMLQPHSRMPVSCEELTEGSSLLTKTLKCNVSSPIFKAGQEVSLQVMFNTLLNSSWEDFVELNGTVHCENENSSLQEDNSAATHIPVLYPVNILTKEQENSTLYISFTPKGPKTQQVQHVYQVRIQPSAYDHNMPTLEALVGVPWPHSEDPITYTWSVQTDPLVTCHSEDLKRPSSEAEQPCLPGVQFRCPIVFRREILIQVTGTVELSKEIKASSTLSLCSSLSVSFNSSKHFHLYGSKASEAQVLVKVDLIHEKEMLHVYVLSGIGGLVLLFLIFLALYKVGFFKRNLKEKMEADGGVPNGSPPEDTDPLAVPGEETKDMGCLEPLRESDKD
Chain of LFA1 (αLβ2) (mouse (endogenous in primary T cells)) (P11835 24-771, chain 2 of 2, further chain): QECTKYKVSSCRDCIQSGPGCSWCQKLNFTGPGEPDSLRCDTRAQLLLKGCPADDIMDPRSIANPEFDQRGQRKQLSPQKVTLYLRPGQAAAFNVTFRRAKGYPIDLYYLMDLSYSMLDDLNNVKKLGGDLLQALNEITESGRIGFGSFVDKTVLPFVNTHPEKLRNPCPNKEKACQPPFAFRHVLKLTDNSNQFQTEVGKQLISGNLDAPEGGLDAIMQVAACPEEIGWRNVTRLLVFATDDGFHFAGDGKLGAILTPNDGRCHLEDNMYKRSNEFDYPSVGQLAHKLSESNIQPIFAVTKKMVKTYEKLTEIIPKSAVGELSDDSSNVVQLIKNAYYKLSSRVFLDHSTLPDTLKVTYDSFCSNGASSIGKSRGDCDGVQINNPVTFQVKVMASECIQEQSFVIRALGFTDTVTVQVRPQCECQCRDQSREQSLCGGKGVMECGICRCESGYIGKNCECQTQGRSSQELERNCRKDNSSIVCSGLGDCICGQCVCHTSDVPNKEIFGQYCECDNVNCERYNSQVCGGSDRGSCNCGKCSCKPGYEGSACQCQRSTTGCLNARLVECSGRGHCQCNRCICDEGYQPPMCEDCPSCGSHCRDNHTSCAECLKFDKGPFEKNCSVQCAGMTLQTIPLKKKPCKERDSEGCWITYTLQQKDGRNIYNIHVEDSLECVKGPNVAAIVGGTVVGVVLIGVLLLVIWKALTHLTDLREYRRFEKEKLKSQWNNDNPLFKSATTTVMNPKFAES
Chain of LFA1 (αLβ2) (P24063 24-1162, chain 1 of 2): as the sequence (P24063 24-1162, chain 1 of 2) above
Chain of LFA1 (αLβ2) (P11835 24-771, chain 2 of 2): as the sequence (P11835 24-771, chain 2 of 2, further chain) above

For the molecule “mouse ICAM1-GPI (from UniProt P13597 28-537) (ligand)”, the koff worked out at 0.03 s⁻¹ in assay [1] and 0.398 s⁻¹ in assay [2].

B1: Mouse ICAM1-Fc (Fc fusion, UniProt P13597 28-485, looked up)
chain: QVSIHPREAFLPQGGSVQVNCSSSCKEDLSLGLETQWLKDELESGPNWKLFELSEIGEDSSPLCFENCGTVQSSASATITVYSFPESVELRPLPAWQQVGKDLTLRCHVDGGAPRTQLSAVLLRGEEILSRQPVGGHPKDPKEITFTVLASRGDHGANFSCRTELDLRPQGLALFSNVSEARSLRTFDLPATIPKLDTPDLLEVGTQQKLFCSLEGLFPASEARIYLELGGQMPTQESTNSSDSVSATALVEVTEEFDRTLPLRCVLELADQILETQRTLTVYNFSAPVLTLSQLEVSEGSQVTVKCEAHSGSKVVLLSGVEPRPPTPQVQFTLNASSEDHKRSFFCSAALEVAGKFLFKNQTLELHVLYGPRLDETDCLGNWTWQEGSQQTLKCQAWGNPSPKMTCRRKADGALLPIGVVKSVKQEMNGTYVCHAFSSHGNVTRNVYLTVLYHSQNN
B1: the “fold binding against WT T cells (Rasa3/Sipa1-KO T cells, Mn2+)” value in assay [3] stood at 2 fold.
